Laboratory results published in the supplement of paper PMC12764529.
± gives the half width of the 95% confidence interval.

Assays:
[1] = folding stability dG unfold (combined trypsin and chymotrypsin); higher = more stable
Outline: (§1)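 Mini-proteins designed to be under 80 residues and free of cysteine were carried in a PA-tagged cDNA display construct and digested with trypsin and with chymotrypsin. Each protease was applied at 11 threefold-diluted concentrations, alongside a no-protease condition, before sequencing. K50 came from Bayesian fitting of the sequencing counts, and unfolding free energy was obtained by comparing it with a sequence-predicted unfolded-state K50 and a shared folded-state K50, for each protease separately or for both together. Designs were retained only if their AlphaFold2 dimer inter-PAE exceeded 15.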

[2] = folding stability dG unfold from chymotrypsin proteolysis; higher = more stable
Outline: as §1

[3] = folding stability dG unfold from trypsin proteolysis; higher = more stable
Outline: as §1

Sequence	folding stability dG unfold [1] [kcal/mol]	folding stability dG unfold [2] [kcal/mol]	folding stability dG unfold [3] [kcal/mol]
SAGEPEKVTITLVDEETGVVITIEIDKETKKITITVESEEERERARELAERLAKELEEAGIKVEILPPSAGG [r19_354_TrROS_Hall]	2.73 ± 0.16	2.26 ± 0.18	2.91 ± 0.14
SAGEVELKIVLPKEEIEKILEALRKLAEEAGLEVEVEKIEKKEDGYYVITVTVKFKETEKEIKIEIIIPSAG [r5_41_TrROS_Hall]	2.69 ± 0.31	2.55 ± 0.12	3 ± 0.51
SAGEVELTEDGSLKITETIEVNGLLFKVTVTIDENGNISVSIEKVEVLPPPPPVEIKLEDEEAKKKALKSAG [r5_715_TrROS_Hall]	1.16 ± 0.69	1.61 ± 0.14	0.26 ± 0.28
SAGFLGFGIEPHPNGWFKIEIMVMFPWPGGWFMFSIDITIPIVPIEPPPPPPVVEPKKENGKPKEWKYDSAG [r5_169_TrROS]	2.74 ± 0.51	3.38 ± 0.25	1.91 ± 0.13
SAGFSITVDYEPEKGLWTVTFTSPPSTSPLSPEEVKETAREIAEKQGIKYELIEISREGNTWTMTIKVLSAG [r14_556_JUSTAS]	5.39 ± 0.13	5.48 ± 0.082	4.25 ± 0.18
SAGFTLKLEFPDSTVDVKVTKVDPKNNIIYAEALLPGGEKLTLTYNPETGEIEIEKKKLERTPDGGLEESAG [r14_466_JUSTAS]	1.13 ± 0.16	1.51 ± 0.14	0.279 ± 0.14
SAGFVMIKIELENPGNGKERELSIIIPYKSQEDARHIAEEIARELAKNGWKIKKIEVMVMPIPPPPDDPSAG [r5_660_TrROS]	5.1 ± 0.24	5.29 ± 0.16	3.95 ± 0.12
SAGGAEQAREILKEWGFEISEVDPKKKTVQVTPPESGMPISIDVDEPGQIKIKIRMNGKPRTFEIPPSAGGS [r16_197_TrROS]	-0.215 ± 0.22	-0.634 ± 0.87	-0.329 ± 0.24
SAGGALANLSPEEIAALLESQGYEVTILEVEEKPGERIVKIRVTVKREDGTVESVEEIELTLPAPDKLSAGG [r13_566_JUSTAS]	2.83 ± 0.095	2.05 ± 0.03	3.7 ± 0.11
SAGGALILLFPHPESRTVTALFVHPDGGSETIPFPVPESIDSLEEVADRLLREARERFPVPVEVVVASAGGS [r8_166_TrMRF]	1.2 ± 0.038	1.37 ± 0.033	0.944 ± 0.012
SAGGAPSSFSTSSDPDGTQLLVVTEPGSGKPRTVRIPPGLNEAVTIPPSRSVSSVELVRVSPASPALLSAGG [r13_122_JUSTAS]	-0.803 ± 0.14	-0.734 ± 0.18	-1.16 ± 0.46
SAGGAPSTFTSTSPEGETTVTTTTTYYPETGTTTTTTTTTNPATGTSTTTTTTTPVAPPQPPLLEAGASAGG [r13_694_JUSTAS]	1.05 ± 0.067	1.08 ± 0.047	0.827 ± 0.056
SAGGAPVPVSVTVEIFKRPDGYIIKVNIPSGETKTFSSLEELEKFLKENPSLKITKRTTVPIEKYYESSAGG [r13_730_JUSTAS]	2.67 ± 0.071	2.83 ± 0.021	1.94 ± 0.047
SAGGARREIVIEIEADTLEEALAAAREALAALEDPEDLTVTIVVRLPPPPPPPRPRRVRLDGEEVELRSAGG [r13_718_TrROS_Hall]	1.01 ± 0.22	1.32 ± 0.19	-0.384 ± 0.75
SAGGATIEIKELGRDEDTWYFLVTDPGSAEAVKDFIEKFIPPDYDAKIKILSVDPETGKVTALIEIPGSAGG [r13_491_TrMRF]	2.64 ± 0.15	2.69 ± 0.14	2.23 ± 0.11
SAGGATLTEPETTVEVRFEKLPDGTVIRTTTTITPEGVTTTTEPVPVPPSPGASSEEELEALRAAAAAASAG [r5_272_JUSTAS]	1.6 ± 0.18	1.51 ± 0.037	1.75 ± 0.037

Sequence	folding stability dG unfold [1] [kcal/mol]	folding stability dG unfold [2] [kcal/mol]	folding stability dG unfold [3] [kcal/mol]
SAGGATRIRVLATNASGEKVELDIPQAIADAIAEALKQGKPIPPGPASVIAAFATSNGYDFEIVDISSAGGS [r8_159_TrMRF]	2.85 ± 0.093	3.106 ± 0.031	2.02 ± 0.062
SAGGAVEITDISSKTVTEPVTFENGTVVPQERTAGTVTTTENGTPVATVPFTSEEELEEAIARALAESAGGS [r8_21_JUSTAS]	0.869 ± 0.1	1.24 ± 0.034	-0.276 ± 0.22
SAGGAVEKNSNNPNTSPEKAKEIAEEIAEELKKEGHVPKSISFSEKENGKLTATIKIEDGKELTIGLSAGGS [r8_485_JUSTAS]	< -1	-0.467 ± 0.17	-0.343 ± 0.16
SAGGAVYRNPATGEWYEPGMTEEEREARARAALPPPTVTITVTVTVVFEDNGTTVTATATVTLTVEGSAGGS [r16_387_TrROS_Hall]	3.44 ± 0.1	3.83 ± 0.12	2.97 ± 0.11
SAGGDALKGLPPGAKVKVERVNGKLVVVVEKVEVKPPPKVTLTLPPGWKLTRLELTEDGTLKAELEPSAGGS [r16_103_TrROS_Hall]	1.79 ± 0.23	2.13 ± 0.068	1.4 ± 0.053
SAGGDATIVLTDFPEDDPEARIRTARNLYRELKAAGPPLRINILTDTPLGREVADYLESEGIEVGLGSAGGS [r16_450_TrMRF]	-0.33 ± 0.2	-0.206 ± 0.26	-0.828 ± 0.43
SAGGDDKWKIEIDIQPHDDYWVITARIRDPNGKERERMFMMPPDNIKKILNELPPEIEDIEVHRVPNSAGGS [r16_298_TrROS]	2.53 ± 0.17	2.72 ± 0.045	2.11 ± 0.074
SAGGDEIAKEIANHAREQGYKVEVKVERDEDGMVKIDVEMSMPNGRRVTFSITINPDGIEIQSIEVTPSAGG [r13_203_TrROS]	3.97 ± 0.15	4.41 ± 0.067	2.65 ± 0.12
SAGGDKDNKPPIPTKTITFMLPYDSPEDAKDYAEEIARELFQEEGIPIKVTVQYNPESGWVWVTITIYSAGG [r13_517_TrROS]	4.32 ± 0.12	4.57 ± 0.075	3.49 ± 0.1
SAGGDLEAKPFEITFVIKAKPFPTPDGRLVETPEKVFKLKVLVVRGPNETRLFVFDEDGNLLFTSNLSAGGS [r16_92_TrMRF]	3.39 ± 0.064	3.888 ± 0.022	2.37 ± 0.051
SAGGDLIERVAKELMEKFPMKPGEPRPITIEIPYPDGYRIKVDIPVRVNPDNGEFRFKFDIKEIEPWSAGGS [r16_634_TrROS]	1.25 ± 0.13	1.43 ± 0.16	1.02 ± 0.052
SAGGDPDEIKKVIITARIYRPDPDGNIHTATIPIIIEGPLDEVIEKVAKEIEEAFGTKIVEITVEKGSAGGS [r16_511_TrMRF]	1.36 ± 0.14	1.2 ± 0.07	1.54 ± 0.047
SAGGDPETPTTITAPVDPATGTTTWVVNDGSSTSTIPSSLSLEELKKLGLTKAEPLPDGTLRFTILASAGGS [r8_382_JUSTAS]	0.495 ± 0.053	0.494 ± 0.081	0.289 ± 0.022
SAGGDPGWVRVTAEIELDGKNLKIEWWYMPNGNYYYNIEFPNGKEIEIMIPMEPGDVEEFAEYIAKKLSAGG [r13_296_TrROS]	2.66 ± 0.11	2.838 ± 0.028	2.32 ± 0.069
SAGGDPSATPVVVEFTLPDGARAVATTFPSGVVVARVFNPVTGRTTEVTVTVVPESATATVTVRPNPDSAGG [r13_822_TrMRF]	1.02 ± 0.053	1.13 ± 0.067	0.762 ± 0.027
